T1: rhMC-4R (rhesus monkey)
T1 chain: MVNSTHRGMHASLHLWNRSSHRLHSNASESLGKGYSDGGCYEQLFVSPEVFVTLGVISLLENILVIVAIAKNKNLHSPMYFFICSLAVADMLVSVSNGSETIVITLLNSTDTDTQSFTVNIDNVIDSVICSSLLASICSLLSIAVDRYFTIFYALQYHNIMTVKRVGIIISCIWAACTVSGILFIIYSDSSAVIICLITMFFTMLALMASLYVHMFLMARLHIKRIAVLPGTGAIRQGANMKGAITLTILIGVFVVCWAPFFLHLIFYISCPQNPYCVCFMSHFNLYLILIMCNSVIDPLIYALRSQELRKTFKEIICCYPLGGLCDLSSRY


Experiments:
Assay in all cases: competition
Conditions in all cases: modification not given
hMC-3R (human), P41968 = molecular target: hMC-3R (human), P41968
hMC-3R (human), P41968, sequence (P41968 whole entry): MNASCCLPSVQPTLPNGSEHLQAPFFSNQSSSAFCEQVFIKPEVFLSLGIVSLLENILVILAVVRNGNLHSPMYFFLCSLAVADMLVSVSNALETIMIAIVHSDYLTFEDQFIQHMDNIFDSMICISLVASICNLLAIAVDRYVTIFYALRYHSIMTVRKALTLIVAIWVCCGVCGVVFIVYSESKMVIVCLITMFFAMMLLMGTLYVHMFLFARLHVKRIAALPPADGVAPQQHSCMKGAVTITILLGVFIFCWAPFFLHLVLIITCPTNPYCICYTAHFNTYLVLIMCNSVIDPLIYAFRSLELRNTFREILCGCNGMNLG

hMC-4R (human), P32245 = molecular target: hMC-4R (human), P32245
hMC-5R (human), P33032 = molecular target: hMC-5R (human), P33032
hMC-5R (human), P33032, sequence (P33032 whole entry): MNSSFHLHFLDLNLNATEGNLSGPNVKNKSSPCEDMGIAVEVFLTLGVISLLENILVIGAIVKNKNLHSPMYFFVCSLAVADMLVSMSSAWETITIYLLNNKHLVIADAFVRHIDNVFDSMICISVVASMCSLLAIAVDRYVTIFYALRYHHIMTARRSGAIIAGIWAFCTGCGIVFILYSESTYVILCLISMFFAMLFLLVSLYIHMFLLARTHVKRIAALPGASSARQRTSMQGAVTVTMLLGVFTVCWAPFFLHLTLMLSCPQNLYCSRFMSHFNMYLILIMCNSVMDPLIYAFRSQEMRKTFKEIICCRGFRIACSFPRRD

rhMC-4R (rhesus monkey) = molecular target: T1, rhMC-4R (rhesus monkey)

Binder	IC50 (hMC-3R (human), P41968)	IC50 (hMC-4R (human), P32245)	IC50 (hMC-5R (human), P33032)	IC50 (rhMC-4R (rhesus monkey))
SYSMEHFRWGKPVGKKRRPVKVYPNGAEDESAEAFPLEF [ACTH1-39, P01189]	6 nM	6 nM	0.4 nM	1.3 nM
SYSMEHFRWGKPV [alpha-MSH, P01189]				27 nM

From US7029865
